In patent publication US20180105569A1 (INDIANA UNIVERSITY RESEARCH AND TECHNOLOGY, published 2018):
Numbered stars: 1 amine (or outer) side, 2 acyl side, 3 side chain; on linkers, the order of the positions; unused ones are H or OH. Square brackets hold non-standard residues; d marks the D form. Side chains are listed from the residue outwards. Ends that are not written are not given here. * marks the point of attachment. 4‑HPA = 4-hydroxyphenylacetic acid, O=C(Cc1ccc(O[*:3])cc1)[*:2]; C16 acyl = C16 fatty acyl group bound via a gamma-Glu spacer; γGlu = O=C(O)[C@H](CCC(=O)[*:2])N[*:1]; Desaminotyrosyl = O=C(CCc1ccc(O)cc1)*; Palmitoyl = CCCCCCCCCCCCCCCC(=O)*

T1: GIP receptor (UniProt P48546 22-466, limits assumed)
T1 sequence (looked up): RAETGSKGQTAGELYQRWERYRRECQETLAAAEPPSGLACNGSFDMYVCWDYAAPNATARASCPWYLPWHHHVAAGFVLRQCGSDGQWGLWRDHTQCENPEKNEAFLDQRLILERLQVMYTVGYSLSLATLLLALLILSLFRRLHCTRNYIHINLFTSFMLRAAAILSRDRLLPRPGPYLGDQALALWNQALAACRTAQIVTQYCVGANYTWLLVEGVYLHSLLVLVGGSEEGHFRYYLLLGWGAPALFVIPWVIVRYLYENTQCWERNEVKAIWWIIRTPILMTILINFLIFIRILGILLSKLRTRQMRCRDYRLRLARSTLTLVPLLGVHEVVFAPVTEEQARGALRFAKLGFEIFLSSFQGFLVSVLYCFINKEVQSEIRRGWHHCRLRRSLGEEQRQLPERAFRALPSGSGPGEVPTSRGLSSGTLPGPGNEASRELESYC

B1: peptide of SEQ ID NO: 144 (peptide)
peptide: Ac-[dY]AEGTFTSDK([γGlu-Palmitoyl])SKYLDERAAQDFVQWLLEAGPSSGAPPPS-NH2
SMILES: CCCCCCCCCCCCCCCC(=O)N[C@@H](CCC(=O)NCCCC[C@H](NC(=O)[C@H](CC(=O)O)NC(=O)[C@H](CO)NC(=O)[C@@H](NC(=O)[C@H](Cc1ccccc1)NC(=O)[C@@H](NC(=O)CNC(=O)[C@H](CCC(=O)O)NC(=O)[C@H](C)NC(=O)[C@@H](Cc1ccc(O)cc1)NC(C)=O)[C@@H](C)O)[C@@H](C)O)C(=O)N[C@@H](CO)C(=O)N[C@@H](CCCCN)C(=O)N[C@@H](Cc1ccc(O)cc1)C(=O)N[C@@H](CC(C)C)C(=O)N[C@@H](CC(=O)O)C(=O)N[C@@H](CCC(=O)O)C(=O)N[C@@H](CCCNC(=N)N)C(=O)N[C@@H](C)C(=O)N[C@@H](C)C(=O)N[C@@H](CCC(N)=O)C(=O)N[C@@H](CC(=O)O)C(=O)N[C@@H](Cc1ccccc1)C(=O)N[C@H](C(=O)N[C@@H](CCC(N)=O)C(=O)N[C@@H](Cc1c[nH]c2ccccc12)C(=O)N[C@@H](CC(C)C)C(=O)N[C@@H](CC(C)C)C(=O)N[C@@H](CCC(=O)O)C(=O)N[C@@H](C)C(=O)NCC(=O)N1CCC[C@H]1C(=O)N[C@@H](CO)C(=O)N[C@@H](CO)C(=O)NCC(=O)N[C@@H](C)C(=O)N1CCC[C@H]1C(=O)N1CCC[C@H]1C(=O)N1CCC[C@H]1C(=O)N[C@@H](CO)C(N)=O)C(C)C)C(=O)O
B2: peptide of SEQ ID NO: 148 (peptide)
peptide: Ac-[dH]AEGTFTSDK([γGlu-Palmitoyl])SKYLDERAAQDFVQWLLEGGPSSGAPPPS-NH2
SMILES: CCCCCCCCCCCCCCCC(=O)N[C@@H](CCC(=O)NCCCC[C@H](NC(=O)[C@H](CC(=O)O)NC(=O)[C@H](CO)NC(=O)[C@@H](NC(=O)[C@H](Cc1ccccc1)NC(=O)[C@@H](NC(=O)CNC(=O)[C@H](CCC(=O)O)NC(=O)[C@H](C)NC(=O)[C@@H](Cc1c[nH]cn1)NC(C)=O)[C@@H](C)O)[C@@H](C)O)C(=O)N[C@@H](CO)C(=O)N[C@@H](CCCCN)C(=O)N[C@@H](Cc1ccc(O)cc1)C(=O)N[C@@H](CC(C)C)C(=O)N[C@@H](CC(=O)O)C(=O)N[C@@H](CCC(=O)O)C(=O)N[C@@H](CCCNC(=N)N)C(=O)N[C@@H](C)C(=O)N[C@@H](C)C(=O)N[C@@H](CCC(N)=O)C(=O)N[C@@H](CC(=O)O)C(=O)N[C@@H](Cc1ccccc1)C(=O)N[C@H](C(=O)N[C@@H](CCC(N)=O)C(=O)N[C@@H](Cc1c[nH]c2ccccc12)C(=O)N[C@@H](CC(C)C)C(=O)N[C@@H](CC(C)C)C(=O)N[C@@H](CCC(=O)O)C(=O)NCC(=O)NCC(=O)N1CCC[C@H]1C(=O)N[C@@H](CO)C(=O)N[C@@H](CO)C(=O)NCC(=O)N[C@@H](C)C(=O)N1CCC[C@H]1C(=O)N1CCC[C@H]1C(=O)N1CCC[C@H]1C(=O)N[C@@H](CO)C(N)=O)C(C)C)C(=O)O

Biological target: GLP-1 receptor (UniProt P43220 24-463, limits assumed)
Test: cell-based or functional assay

Row | Binder | EC50 at GLP-1 Receptor (cAMP luciferase reporter, HEK293) [pM]
1 | B1 | 17
2 | [4‑HPA]AQGTFTSDK([γGlu-C16 acyl])SKYLDERAAQDFVQWLLEGGPSSGAPPPS-NH2 [peptide of SEQ ID NO: 156] | 2
3 | B2 | 2
4 | [Desaminotyrosyl]AQGTFTSDYSKYLDERAAQDFVQWLLEGGPSSGAPPPSK([γGlu-γGlu-Palmitoyl])G-NH2 [peptide of SEQ ID NO: 160] | 22
5 | Ac-[dY]AQGTFTSDYSKYLDERAAQDFVQWLLEAGPSSGAPPPSK([γGlu-γGlu-Palmitoyl])G-NH2 [peptide of SEQ ID NO: 159] | 9
6 | [Desaminotyrosyl]AQGTFTSDYSKYLDERAAQDFVQWLLEGGPSSGAPPPSK(Palmitoyl)G-NH2 [peptide of SEQ ID NO: 157] | 13
7 | Ac-[dH]AQGTFTSDK([γGlu-Palmitoyl])SKYLDERAAQDFVQWLLEAGPSSGAPPPS-NH2 [peptide of SEQ ID NO: 151] | 2

Biological target: glucagon receptor (UniProt P47871 26-477, limits assumed)
Sequence (P47871 26-477 limits assumed): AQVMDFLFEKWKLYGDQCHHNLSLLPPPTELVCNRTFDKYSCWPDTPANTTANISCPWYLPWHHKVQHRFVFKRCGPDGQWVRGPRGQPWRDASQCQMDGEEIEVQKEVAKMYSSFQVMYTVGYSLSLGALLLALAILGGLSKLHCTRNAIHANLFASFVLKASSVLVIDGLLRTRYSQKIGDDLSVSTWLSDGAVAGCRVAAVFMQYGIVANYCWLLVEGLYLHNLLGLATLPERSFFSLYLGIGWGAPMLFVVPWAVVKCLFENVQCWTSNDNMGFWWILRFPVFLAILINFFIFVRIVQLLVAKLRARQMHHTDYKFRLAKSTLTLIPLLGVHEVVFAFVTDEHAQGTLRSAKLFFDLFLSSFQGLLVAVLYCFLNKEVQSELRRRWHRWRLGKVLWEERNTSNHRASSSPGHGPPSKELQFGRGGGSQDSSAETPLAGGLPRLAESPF
Test: cell-based or functional assay

Row | Binder | EC50 at Glucagon Receptor (cAMP luciferase reporter, HEK293) [nM]
8 | B1 | 1.3
9 | [4‑HPA]AQGTFTSDK([γGlu-C16 acyl])SKYLDERAAQDFVQWLLEGGPSSGAPPPS-NH2 [peptide of SEQ ID NO: 156] | 0.011
10 | B2 | 0.178
11 | [Desaminotyrosyl]AQGTFTSDYSKYLDERAAQDFVQWLLEGGPSSGAPPPSK([γGlu-γGlu-Palmitoyl])G-NH2 [peptide of SEQ ID NO: 160] | 0.049
12 | Ac-[dY]AQGTFTSDYSKYLDERAAQDFVQWLLEAGPSSGAPPPSK([γGlu-γGlu-Palmitoyl])G-NH2 [peptide of SEQ ID NO: 159] | 0.04
13 | [Desaminotyrosyl]AQGTFTSDYSKYLDERAAQDFVQWLLEGGPSSGAPPPSK(Palmitoyl)G-NH2 [peptide of SEQ ID NO: 157] | 0.047
14 | Ac-[dH]AQGTFTSDK([γGlu-Palmitoyl])SKYLDERAAQDFVQWLLEAGPSSGAPPPS-NH2 [peptide of SEQ ID NO: 151] | 0.003

Biological target: T1, GIP receptor
Test: cell-based or functional assay

Row | Binder | EC50 at GIP Receptor (cAMP luciferase reporter, HEK293) [nM]
15 | B1 | 0.003
16 | [4‑HPA]AQGTFTSDK([γGlu-C16 acyl])SKYLDERAAQDFVQWLLEGGPSSGAPPPS-NH2 [peptide of SEQ ID NO: 156] | 0.042
17 | [Desaminotyrosyl]AQGTFTSDYSKYLDERAAQDFVQWLLEGGPSSGAPPPSK([γGlu-γGlu-Palmitoyl])G-NH2 [peptide of SEQ ID NO: 160] | 0.086
18 | Ac-[dY]AQGTFTSDYSKYLDERAAQDFVQWLLEAGPSSGAPPPSK([γGlu-γGlu-Palmitoyl])G-NH2 [peptide of SEQ ID NO: 159] | 0.08
19 | [Desaminotyrosyl]AQGTFTSDYSKYLDERAAQDFVQWLLEGGPSSGAPPPSK(Palmitoyl)G-NH2 [peptide of SEQ ID NO: 157] | 0.059
20 | Ac-[dH]AQGTFTSDK([γGlu-Palmitoyl])SKYLDERAAQDFVQWLLEAGPSSGAPPPS-NH2 [peptide of SEQ ID NO: 151] | 0.014
